Data reported in the DeepSol protein solubility set.

test: soluble on expression in E. coli; label from the status in PepcDB or PDB records

Row | Sequence | soluble on expression in E. coli
1 | MGSDKIHHHHHHMQPLAFRMRPRTIEEIVGQQHLVGPGKIIDRMVKAKLLSSMILYGPPGTGKTSIASAISGSTKYAFRILNAATDSKKDLQIVAEEAKMSGTVILLLDEIHRLDKTKQDFLLPHLENGNIILIGATTENPYININPAIRSRTQIFEVKPLQPDEIKKAVLAAIKDSSRGLGELPIVIDEDALKFVSESTNGDLRSALNAVELAARSTGPDENQKIHLTLAILEECLQKRALTQDKDGDAHYDVISAFQKSIRGSDTDAALHYMARLLESGDLQSVIRRLLIIAYEDIGLANPPACQRTVSAVTAAEHVGLPEARIPLADAVIELCVSPKSNSGISAIDNALTDVRTGKIGEVPDHLRDSHYKGAAALGRGVDYKYPHNYPNDWIAQQYLPDKLVDAAYFDAKGNSTYEEKIKNRYESLKKSQRSNH | not soluble
2 | MDFPTISRSPSGPPAMDLEGPRDILVPSEDLTPDSQWDPMPGGPGSLSRMELDESSLQELVQQFEALPGDLVGPSPGGAPCPLHIATGHGLASQEIADAHGLLSAEAGRDDLLGLLHCEECPPSQTGPEEPLEPAPRLLQPPEDPDEDSDSPEWVEGASAEQEGSRSSSSSPEPWLETVPLVTPEEPPAGAQSPETLASYPAPQEVPGPCDHEDLLDGVIFGARYLGSTQLVSERNPPTSTRMAQAREAMDRVKAPDGETQPMTEVDLFVSTKRIKVLTADSQEAMMDHALHTISYTADIGCVLVLMARRRLARRPAPQDHGRRLYKMLCHVFYAEDAQLIAQAIGQAFAAAYSQFLRESGIDPSQVGVHPSPGACHLHNGDLDHFSNSDNCREVHLEKRRGEGLGVALVESGWGSLLPTAVIANLLHGGPAERSGALSIGDRLTAINGTSLVGLPLAACQAAVRETKSQTSVTLSIVHCPPVTTAIIHRPHAREQLGFCVEDGIICSLLRGGIAERGGIRVGHRIIEINGQSVVATPHARIIELLTEAYGEVHIKTMPAATYRLLTGQEQPVYL | soluble
3 | MKKPIEFYLSGDRVYSTREKAINQLYNNRGYGELKGDKLFLSLIEAAYLTEKGWIKVVDKDKELKFDDLMKLGKSRDEDFDIKYIVYKDLRDRGYIVKSALKFGSHYRVYRKDAEHSDWLIWVLRENQRLSPNDITARARVAHGVRKNMVLAIVDEDGDVVYYKVEWIKF | soluble
4 | MIRKLDKAEFQQATTLALEVYLQCGQDDFEDEGLESFKSFIFNDKLMNELCIYGAFEENKLIGIMGTKNEGKHISLFFIKKEFHRKGIGKQLFDYSQCDCPANEITVNSSTYAIRFYESLGFEKTNDRQQTNGISYTPMKLISNKLEHHHHHH | soluble
5 | MSLTAENILNRNFEANKPNQKWFTDISYLNYGKGQKAYISAIIDRYDLSIIVYKVSKRNDLKLVMDILKLALQNNDASNTILHSDRGFQYTSKHYKNYLDTHNVKISMSKAGSCLDNQPIEAFWGTLKSEYYYRNQFSTYEDLETGISEYINYYMNKRYVPKFDGLTPNEYRNVSEGHHHHHH | not soluble
6 | MNRSRLLLLGAEAVAQGAIDAGLSGVYAYPGTPSTEITEYIQRSAPARQSGIRSAWSANEKTAYEAALGMSYAGKRSLVCMKHVGLNVAADAFMNSAITGVNGGLVLAVADDPSMHSSQNEQDSRVYGRFAMVPVLEPASQQELYDAMFHAFELSEAVRLPVIMRMTTRLSHSRAGVELKASLEQNPLSAE | not soluble
7 | MGSDKIHHHHHHMTTSITIGNFKGGVGKTTTCVTFSYLLNKAHRKTLLIDFDPQGNASEIIEKTFPVFKQKNSKSLTDGIKNLDLSESIAHVTDYLDLMPSDWSLSLLPDMLEDYKKSDRPLFLKTLLTKIRNDYDYILIDVPPTLSAYTNNAVLASDYVIMVMQTQEQSYSSSLKFVSYLQGLRKDYDKSFDLLGIIAYLVKKDGPVDHEVLKAANQAFGKALFHGNVFQRERVKRFGKSGIKDEDMWDKRALYMYQVVLDEALSRINLLEE | not soluble
8 | MLEPCTKRSELLYRMHLLSKEISHVFEQQTNMSFTKVEILFHIKQTPGQSQNRLKEKLYIDSASITRHLKRMEEQGLIVRKKQDENKRYTYLFLTPAGEAELTSLLTEKEKFQTGALEGFSEDEVSALLKSVTKMMNNVEKLEEKLK | not soluble
9 | MLLVSDIQTIQPSLNSVNEGGQKIKNEAEPEFASRLETELKELNTQWDHMCQQLEHHHHHH | not soluble
10 | MTTHQDGNADGASATARTVSLDVVVVGAGTSGCYAAATVADAGYDVVIVERKDETEAGHIACGDALKGASDFPDAIPKSQLEPAFTNTDVDHGRFEIPQEDTVLEIPVPGELAVIDRWEYGRCLIEGANDSGVEFHYDTVVQDVLQDDSGRVTGVKAMRKGDPVTYEGDMVIDGAGALSILQDKTDLEAATFDTNVQYSQFCSAYREIIEVDEPVEWDDALVFKPTERSAGYLWYFPRTDTEINAGLGFQMNEEPMELVDDLKRDLQGRSEFEGAEVQDKLGAALPTRRPYDSAVAPGFMAVGDAAGHVNPTTGGGIAGAAYAGTYAAEQAIEAIEAGRTDDEAALWEYNERVMDHFGARYAALDVYNIFTTAYDVDDLMALLAALPGEKLAEALYGGSTSIGLGLKLKMAVKSIGHLGTIRDLYQTKKAADRLLEHYESYPSDRSGFEAWQRERDSIMDDIYEVTGAEPKYLEHHHHHH | soluble
11 | MGSDKIHHHHHHMNIIGFSKALFSTWIYYSPERILFDAGEGVSTTLGSKVYAFKYVFLTHGHVDHIAGLWGVVNIRNNGMGDREKPLDVFYPEGNRAVEEYTEFIKRANPDLRFSFNVHPLKEGERVFLRNAGGFKRYVQPFRTKHVSSEVSFGYHIFEVRRKLKKEFQGLDSKEISRLVKEKGRDFVTEEYHKKVLTISGDSLALDPEEIRGTELLIHECTFLDARDRRYKNHAAIDEVMESVKAAGVKKVILYHISTRYIRQLKSVIKKYREEMPDVEILYMDPRKVFEM | not soluble
12 | MSLRDTVLVVDDEPDSLRFLADTLEGAGIRVLVAISGDAALDVLQHVEPDLILMDGVMPGRSGFETTACIKARPELAHVPVVFMTGLHDDEHVVRGFEVGGVDYLRKPVNVQELLARVRVHVGNARAIQAGAAGLDATGRLMMATDLQGGLLWCTPLAERAIARACPGWSRDAGALPDALREPVRKMLGRGAAQSGSVKVEQVDGTMELVVIAQYRGQEVLIRVNELNPKADIALLQQKLGLTDREAEVLLWTSYGKSNATISEVLAISPRTVQKHLERIYEKLGIETRAAAAAVAIKALGNEGHHHHHH | soluble
13 | MPAIEVGRICVKVKGREAGSKCVIVDIIDDNFVLVTGPKDITGVKRRRVNILHLEPTDKKIDIQKGASDEEVKKKLEESNLTEYMKEKIKIRMPTL | soluble
14 | MISHCRRLLATTTALVIASTAIAAAEPSAELIAAAKKEGMLTTVALPHDWCGYGDVIAAFKAKYPEITVNELNPDAGSADEVEAVKANKDNKGPQAPDVVDVGLAFGPQMKAEGLLQPYKVSTWAEIPDNVKDADGYWYGDYYGVMSMFVNKDLVKNVPKDWADLLKPEYSGQVALAGDPRASNQAILGVLAAGLSTGAKSGKEAGEAGLKYFADLNKAGNFLPVIGKAGTLAQGATPIIVAWDYNALSWKKTLNDNPPTEVVVPEKGVLAGVYVQGISAYAPHPNAAKLWMEHLYSDDGQLGWLKGYCHPIRFNAMVKAGKVPQELIDSLPPAAAYEKAIFPTLEEVDANKAAVTGGWDKVVGANVK | not soluble
15 | MEAKTMKDMQKEVDAYIGQFKEGYFSPLAMMARLTEEMGELAREVNHYYGEKPKKTTEKERSIEEELGDVLFVMICMANSLNIDLETAHNIVMNKFNTRDKDRWTRIDEGEKE | not soluble
16 | MLPEKSEIVVIGGGIVGVTIAHELAKRGEEVTVIEKRFIGSGSTFRCGTGIRQQFNDEANVRVMKRSVELWKKYSEEYGFSFKQTGYLFLLYDDEEVKTFKRNIEIQNKFGVPTKLITPEEAKEIVPLLDISEVIAASWNPTDGKADPFEATTAFAVKAKEYGAKLLEYTEVKGFLIENNEIKGVKTNKGIIKTGIVVNATNAWANLINAMAGIKTKIPIEPYKHQAVITQPIKRGTINPMVISFKYGHAYLTQTFHGGIIGGIGYEIGPTYDLTPTYEFLREVSYYFTKIIPALKNLLILRTWAGYYAKTPDSNPAIGRIEELNDYYIAAGFSGHGFMMAPAVGEMVAELITKGKTKLPVEWYDPYRFERGELRTAALQMG | soluble
17 | MGSDKIHHHHHHMIIGDKRLDVIHNIKQAANERNFTAKTEIGDPVMSSEEKLALVEGFWQKQDQAKTKFDGTVGHELLQLLTKTISGSTKVNGLGKLKGLPKGGAIVTANHFNQVDALAVNRLAQKAHRRMDIVIEDTNLMLPGFFSYIMNNMGSIPLTQSPNYLGREFIQHLNQAFNQNHWVLIFPEQEMWWNYRKPRKPQRGAYYFAAKCNVPVISTFVEIQDLPKLEKQNEHFYQTRYTVHVLDVLYPDPTKTASENASRLMEEDYKLKVQAYERVYKKKLDYDFTSWDIAGWRGE | not soluble
18 | MSNIYDWSLKADENAHSDNIINWAEGQPPSSVNDSARAMMQRVREYLADNGGSLDSTFIVNAEDKTTSIIVTTASPIEEYKNDIIIRFKAGGVNVGTTTVIVNNIEEKLLYKATNAGVTPLEGGELQRDAIYEMVYNKDVSMEDHGGWYLLNPTPLPPPKIETFPSGFIATFAMQEVPSGWLLCDGAVYERKDYPQLFKAIGDKWGKDSDTTFKVPDFRGMFLRGFDDGRGLDAGRQFADQQHDSIRSHTHIGTIEEAGEHTHKFQYYGVGWDSGDIGRRNPFYYRQSSTGVTQSAGAHTHDISLSPTGEAETRPVNTTVVYAIKS | not soluble
19 | MKTINVFHYDAFTNKPNMGNPAGIVLDADGLTEEEMQRIAEKVGFNETSFVLSSEVADIRMRYFTPGYEMDLCGHGTVGTIYALRERGLLEEKASLTIETKAGILPIQIGVNENGETFIKMRQTAPQFKDFAGSKEELAHSIGLEVNDLDVSLPIVYGSTGNWTVIVPVKNLDVCERMKPNNEVFPSVLKEIPNASIHPICLETYDEKVHMHGRHFSSAYAGTIEDPVTGTASGVMGAYYATYVEKDFDHEMELIVEQGQEIHKDGRVTVYVTKDVESEKLQIDIAGTAVYVKEFEVLI | soluble
20 | MAHHHHHHMAPPNGTVCCPEDLKMYSTIQLNQEIEISKNPFPLHEINKKNDIPLCAQEFSDLTDPLYIKKICLEKVPEWNHFTEDNLRVKQILSGLTNQLFEVGLKEETANNYNSIRTRVLFRIYGKHVDELYNTISEFEVYKTMSKYKIAPQLLNTFNGGRIEEWLYGDPLRIDDLKNPTILIGIANVLGKFHTLSRKRHLPEHWDRTPCIFKMMEKWKNQLFKYKNIEKYNCDIHKYIKESDKFIKFMKVYSKSDNLANTIVFCHNDLQENNIINTNKCLRLIDFEYSGFNFLATDIANFFIETSIDYSVSSYPFFEIDKKKYISYENRKLFITAYLSNYLDKSLVVPTPKLIDEILEAVEVQALGAHLLWGFWSIIRGYQTKSYNEFDFFLYAEQRLKMYDDQKEYLISNNI | not soluble
21 | VAAAPRSPEDRRAQILDVAVRLLETVPFDDLSMDQVAAEAGVSPPLLFHYFKNKQGFRNAVLEASASELQRRMTPDAALPVSGQLRAGVETFADAVIEHPTIYLAVMRMAGSGDERMRQIYRGMRRTFTRWIGASLAEFGVPTTPALEAAISGWQAFMEEIVLSWLDEPTMDRTDMIDLCERAFYHLLPAAGVDVDALDVTR | soluble
22 | MGSDKIHHHHHHMRIIILSSSTNRSGGTRQAFYQARELATRGHHVSLCLPEDSQMHGMGYDDLIVTLPADRKRWKASIEALFAADGPTVVHAFHNRAVKFVAWHGMFWRHRGVVCCAHRGVMYRPGNPLPYISPGMDAFIANSQACARVLRLFTPAGKLFVVYNGVDDARVTPRTPADTAREQVGLPPRGAEAAWSSSSPAPLVFGFVGQNSPVKGADILIDAFARADVGEARLLMVGVSHDMWRPRCEALGIADRVHLVPHTESVSDMLQLMDAFVLPSRTESLPNTMLEAIRMGLPVIGSAVGGVPELVRGNGLLFPAGDIDALAAALGRMASDHATREAWAAASHAEGERYTIHARVDALEDIYAQLLRRRGLHTA | not soluble
